# T1: MBP-tagged full-length PRG-1 (C. elegans, UniProt P90786 1-824, Atto-594 label (in the cluster imaging only))
# T1 construct: PRG-1, the PIWI protein of C. elegans, full length; Cloned into pMAL-C5X; Unlabelled in the MST titration; also called MBP-PRG-1; MBP-PRG; source: E. coli BL21 (DE3), purified (RNaseA-treated lysate, amylose resin, size-exclusion chromatography)
# T1 sequence (looked up): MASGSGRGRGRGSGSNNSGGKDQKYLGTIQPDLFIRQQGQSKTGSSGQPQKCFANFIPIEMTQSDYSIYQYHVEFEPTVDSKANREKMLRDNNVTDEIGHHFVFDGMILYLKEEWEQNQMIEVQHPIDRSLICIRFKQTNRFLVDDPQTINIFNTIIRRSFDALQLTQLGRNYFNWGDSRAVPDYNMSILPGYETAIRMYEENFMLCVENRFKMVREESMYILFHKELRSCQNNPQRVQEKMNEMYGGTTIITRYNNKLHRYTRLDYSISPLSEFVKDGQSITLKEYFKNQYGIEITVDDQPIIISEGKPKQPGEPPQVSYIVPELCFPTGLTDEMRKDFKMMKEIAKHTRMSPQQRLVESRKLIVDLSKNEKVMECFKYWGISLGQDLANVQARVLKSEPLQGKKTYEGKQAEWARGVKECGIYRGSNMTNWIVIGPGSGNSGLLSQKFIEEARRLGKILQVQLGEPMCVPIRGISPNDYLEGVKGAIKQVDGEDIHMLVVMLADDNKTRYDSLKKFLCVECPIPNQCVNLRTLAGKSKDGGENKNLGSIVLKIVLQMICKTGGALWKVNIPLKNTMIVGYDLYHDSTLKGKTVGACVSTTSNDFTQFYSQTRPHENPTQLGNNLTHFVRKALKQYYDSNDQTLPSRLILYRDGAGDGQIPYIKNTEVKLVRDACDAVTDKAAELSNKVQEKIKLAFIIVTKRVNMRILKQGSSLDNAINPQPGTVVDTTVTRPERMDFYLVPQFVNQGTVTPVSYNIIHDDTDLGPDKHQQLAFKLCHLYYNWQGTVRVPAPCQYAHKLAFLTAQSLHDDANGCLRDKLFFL
# B1: MBP-tagged full-length DEPS-1 (natural protein, C. elegans, UniProt Q9N303 1-619, looked up)
# chain: MSERQSKYFDYQGIVISSTGQDNQDSETDLVYLIQAHGKAAPKNIMYGVSKCAFVPTNLERNFDNIEEAKNLERRSKIPLKFGEVILWNESDCDHDKRIILHIKREKPIYEASSSRNGLILKVGGVIQPTSTTSFWTPLCTVTMPETEATRAEPDVWLYAWIRFETTMKSGLDPFNMTATFESFDSCDPSDQARVCEAPWNAGSPDSKFGVWRPDPKPADSDDEIDIEPREGWHLPEDKWAEVIKMQLGLYVGERLLICKELSQFDFIIPLQKPFSRGTDKTLIYPAVGEYFHFSAIWSMQHNGFLIYELQPVPLLRQHVTSVNGNLLTRVVPASIRGLFVDKEGTLGLIDDPHHLLSFFEFHPAGYEFLKAMAEVRAVRTSENKSVRYRIVRTSGMSIFENWLRDTQFVVGPVKGIRINEDTVICAKHPNVYFKIPNNLKEGIPIGGGVQFVGKRQAGVDSEIMITECSPCPAFTCKNYSVSGDTRLFQVYLKPNCDHEQLAESDSMGFVDFRELETPCRGKFLAWVRESITVNDCRRAATIMEVCSTAICPPLIAMSANSSRATSARTTPAGSSIGSRSSIQSRASAATSVSSNRFVGPSSRRTPSGTPQSSTSSRV
# modifications: atto-488 NHS ester label
# notes: DEPS-1 (Defective P granules and Sterile-1), C. elegans P granule protein, full length; Cloned into pMAL-C5X; Labelled partner (10 nM) in the MST with MBP-PRG-1; also called MBP-DEPS-1; Defective P granules and Sterile-1; source: E. coli BL21 (DE3), purified (RNaseA-treated lysate, amylose resin, size-exclusion chromatography)
# Tests used:
# Test in all cases: MST; one partner labelled with atto-488 NHS ester at a constant amount, unlabelled partner serially diluted 1:2; 30 mM HEPES pH 7.5, 100 mM K-Ac, 2 mM Mg-Ac, 14 mM BME, 0.01% NP-40; apparent Kd by the law of mass action
# [1] = target: MBP-tagged full-length DEPS-1 (C. elegans) (UniProt Q9N303)
# [2] = target: DEPS-1 PBS motif peptide (C. elegans)
# [3] = target: N-terminal fragment of DEPS-1 (DEPS-1^frag1) (C. elegans) (UniProt Q9N303)
# [4] = target: T1, MBP-tagged full-length PRG-1; conditions: both partners purified
molecule,measurement,setting,value
MBP-tagged PRG-1 PIWI domain (from UniProt P90786 1-824) (domain or fragment),Kd,[1],349 nM
same,Kd,[2],1900 nM
same,Kd,[3],151 nM
B1,Kd,[4],855 ± 133 nM

# — publication PMC7447803, “DEPS-1 is required for piRNA-dependent silencing and PIWI condensate organisation in Caenorhabditis elegans” (Nature Communications, 2020)
